The results in this text go back to patent US20220331394A1 (SUSAVION BIOSCIENCES, published 2022).

One test addresses T1, Siglec-1 (human, UniProt Q9BZZ2 20-1641, limits assumed).
T1 construct: construct not described
Kind of test: solid-phase binding assay with recombinant receptor. As to the method: (§1) Binding Assays Solid-phase binding assays were performed with streptavidin-, protein A/G-, or Nickel-coated microtiter plates (Pierce). His-tagged or Fc-fusion recombinant receptors (R&D Systems, Minneapolis, Minn.) were reconstituted in PBS. Sufficient receptors were added to wells to saturate the coating. His-tagged receptors were added to each well at a 5-fold excess over the stated capacity of the Ni coating to minimize non-specific binding of the peptide. Wells were washed three times with binding buffer (25 mM Tris HCl, pH 7.4, 150 mM NaCl, 0.05% Tween-20) to remove unbound receptor and 50 μL of 2 μM biotinylated peptide in binding buffer were added and allowed to incubate for 1 h. The wells were washed four times with binding buffer and then incubated with 50 μL of 1 μg/mL streptavidin conjugated with peroxidase (Sigma-Aldrich) for 1 h. The wells were washed five times with binding buffer and 50 μL of peroxidase substrate (1-Step™ Ultra TMB, Pierce) were added. After several minutes to allow color development, the reaction was stopped with 50 μL 1 M H₃PO₄ and absorbance was measured at 450 nm. Bound streptavidin was quantitated by the specific activity of peroxidase (absorbance/ng protein conjugate/min) under the conditions of the assay.
(§2) Solid-phase binding assays were performed with recombinant human receptors. Three variations of the binding assay were used in this study, all of which allowed the arms of the tetravalent peptide to have full flexibility. (i) Biotinylated peptide was bound in microtiter wells coated with streptavidin and incubated with recombinant human receptors. After extensive washing, the bound receptor was measured by peroxidase conjugated to a receptor-specific antibody. (ii) The extracellular domains of receptors, which were fused with the Fc domain of immunoglobulin IgG, were bound in wells coated with protein A/G. Biotinylated peptide was incubated with the receptors and, after extensive washing, bound peptide was measured with streptavidin conjugated with peroxidase. Or (iii), recombinant receptors with a poly-His tag were bound to Nickel-coated wells and incubated with biotinylated peptide. svL4 and sv6D contain His residues (FIGS. 1A, 1C) and can bind to the Ni coating, which was minimized by adding sufficient poly-His-tagged receptor to saturate the Ni coating.

In the next test the target is T2, CD44 (human, UniProt P16070 21-220, limits assumed).
T2 construct: construct not described; also called receptor for hyaluronic acid
The description is as above. As to the method: as §1, §2

For a further test, the target named is T3, IL-4R (human, UniProt P24394 26-232, limits assumed).
T3 construct: construct not described; also called receptor for IL-4
T3 sequence (looked up): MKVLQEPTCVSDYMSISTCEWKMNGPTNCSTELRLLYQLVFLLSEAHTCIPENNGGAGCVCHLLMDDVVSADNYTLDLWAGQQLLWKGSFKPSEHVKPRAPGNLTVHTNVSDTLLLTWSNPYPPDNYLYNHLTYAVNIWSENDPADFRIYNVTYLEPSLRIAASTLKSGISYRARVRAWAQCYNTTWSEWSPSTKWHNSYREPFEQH
The test is described as above. As to the method:
as §1, §2

The target of another test is T4, CLEC9A (human, UniProt Q6UXN8 57-241).
T4 construct: construct not described
Described as above. As to the method:
as §1, §2

The target of the next test is T5, DC-SIGN (human, UniProt Q9NNX6 62-404, limits assumed).
T5 construct: construct not described; also called CD209; dendritic cell-specific intercellular adhesion molecule (ICAM)-3 grabbing non-integrin
T5 sequence (looked up): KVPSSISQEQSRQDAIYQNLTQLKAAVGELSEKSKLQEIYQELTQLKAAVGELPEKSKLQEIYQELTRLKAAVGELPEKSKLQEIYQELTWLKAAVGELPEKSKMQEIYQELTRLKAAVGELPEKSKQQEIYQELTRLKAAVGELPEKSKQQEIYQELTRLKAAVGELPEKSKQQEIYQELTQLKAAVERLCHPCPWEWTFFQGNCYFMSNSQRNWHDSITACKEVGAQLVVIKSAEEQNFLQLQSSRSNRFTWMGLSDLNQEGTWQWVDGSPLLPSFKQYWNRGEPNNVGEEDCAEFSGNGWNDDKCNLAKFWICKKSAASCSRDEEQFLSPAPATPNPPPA
The test is described as above. As to the method:
as §1, §2

Another test has as its target T6, recombinant rat CLEC10A (rat, UniProt P49301 59-306, limits assumed).
T6 construct: construct not described; also called CLEC10A from rat
T6 sequence (looked up): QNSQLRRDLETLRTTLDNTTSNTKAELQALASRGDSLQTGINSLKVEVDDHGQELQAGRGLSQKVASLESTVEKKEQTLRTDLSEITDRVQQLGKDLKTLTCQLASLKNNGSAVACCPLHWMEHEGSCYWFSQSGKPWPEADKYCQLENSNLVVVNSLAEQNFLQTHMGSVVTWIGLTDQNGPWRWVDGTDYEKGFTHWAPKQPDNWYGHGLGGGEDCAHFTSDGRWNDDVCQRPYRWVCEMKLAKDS
The experiment in a line: solid-phase competition with biotinylated GalNAc-PAA. As to the method: FIGS. 3A-3D. sv6D as a mimetic of GalNAc. (FIG. 3A) Inhibition by sv6D of binding of multivalent GalNAc-PAA (GlycoTech Corp., Frederick, Md.) to recombinant rat CLEC10A and human ASGPR-1. The reaction mixture included approximately 200 pmoles of biotinylated GalNc-PAA and increasing concentrations of peptide. The figure includes average values from 3 independent experiments. (FIG. 3B) Biotinylated sv6D or GalNAc-PAA were incubated with rabbit antiserum raised against the 6D sequence (NQHTPR) conjugated to keyhole limpet hemocyanin (KLH). Binding was detected with streptavidin-peroxidase conjugate. Similar data were obtained in 2 experiments. (FIG. 3C) Inhibition by EGTA of binding of sv6D (pattern) or svL4 (solid) to CLEC10A and ASGPR-1, respectively. EGTA (1 mM) was added to the final concentrations indicated to assays. Retention of bound CLEC10A was determined by incubation with biotinylated anti-CLEC10A (goat IgG, R&D Systems) and detection with streptavidin-peroxidase conjugate (light grey circle). Similar data were obtained in 3 experiments. (FIG. 3D) Binding of svL4 and sv6D to human recombinant CLEC10A and ASGPR-1 as a function of concentration of peptide in the assay. The figure is representative of 4 separate assays.
To further determine whether sv6D interacts with the actual sugar binding site, the ability of sv6D to compete with GalNAc-PAA for binding was assayed. […]

Test [1] addresses T7, recombinant human Ca2+-dependent lectin-type receptor family member 10A (CLEC10A) (human, UniProt Q8IUN9 61-316).
T7 construct: extracellular domain; Bought recombinant receptor; also called CD301; macrophage galactose-type lectin
T7 sequence (looked up): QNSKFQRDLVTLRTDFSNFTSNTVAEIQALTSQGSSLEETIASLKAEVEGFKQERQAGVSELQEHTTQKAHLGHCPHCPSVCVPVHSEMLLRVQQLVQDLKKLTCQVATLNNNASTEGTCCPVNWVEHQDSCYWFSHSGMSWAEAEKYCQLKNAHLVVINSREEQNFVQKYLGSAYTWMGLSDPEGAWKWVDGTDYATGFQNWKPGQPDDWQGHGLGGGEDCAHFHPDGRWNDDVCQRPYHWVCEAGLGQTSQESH
The experiment in a line: solid-phase binding assay, double-reciprocal plot of binding vs. peptide concentration. As to the method:
(§3) Binding was detected with streptavidin-peroxidase conjugate. Similar data were obtained in 2 experiments. (FIG. 3C) Inhibition by EGTA of binding of sv6D (pattern) or svL4 (solid) to CLEC10A and ASGPR-1, respectively. EGTA (1 mM) was added to the final concentrations indicated to assays. Retention of bound CLEC10A was determined by incubation with biotinylated anti-CLEC10A (goat IgG, R&D Systems) and detection with streptavidin-peroxidase conjugate (light grey circle). Similar data were obtained in 3 experiments. (FIG. 3D) Binding of svL4 and sv6D to human recombinant CLEC10A and ASGPR-1 as a function of concentration of peptide in the assay. The figure is representative of 4 separate assays.
as §1
(§4) Corresponding values for binding of svL4 to CLEC10A and ASGPR-1 of 0.24±0.04 μM and 0.21±0.03 μM, respectively, were obtained (FIG. 3D).

Test [2] addresses T8, recombinant human asialoglycoprotein receptor 1 (ASGPR-1) (human, UniProt P07306 62-291).
T8 construct: extracellular domain; Bought recombinant receptor; also called Ashwell-Morell receptor; CLEC4H1
T8 sequence (looked up): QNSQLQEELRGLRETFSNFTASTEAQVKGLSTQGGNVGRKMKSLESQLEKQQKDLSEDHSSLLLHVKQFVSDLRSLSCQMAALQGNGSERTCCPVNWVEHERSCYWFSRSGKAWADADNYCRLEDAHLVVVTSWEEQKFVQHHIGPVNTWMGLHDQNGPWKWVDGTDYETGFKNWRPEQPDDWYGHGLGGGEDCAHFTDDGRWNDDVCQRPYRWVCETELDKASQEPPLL
The test is described as above. As to the method:
as §3, §1, §4

Test [3] deals with T7, recombinant human Ca2+-dependent …. The experiment in a line: solid-phase binding assay with recombinant human receptor. Here is the method: as §1, with “The wells were washed five times with binding buffer and 50 μL of peroxidase substrate (1-Step™ Ultra TMB, Pierce) were added.” left out
(§5) Solid-phase binding assays were performed with recombinant human receptors. […] After extensive washing, the bound receptor was measured by peroxidase conjugated to a receptor-specific antibody. […]

Test [4] concerns the target T8, recombinant human asialoglycoprotein …. The description is as above. Here is the method:
as §1, with “The wells were washed five times with binding buffer and 50 μL of peroxidase substrate (1-Step™ Ultra TMB, Pierce) were added.” left out
as §5

No end group written: not given here.

T1 sequence (Q9BZZ2 20-1641 limits assumed): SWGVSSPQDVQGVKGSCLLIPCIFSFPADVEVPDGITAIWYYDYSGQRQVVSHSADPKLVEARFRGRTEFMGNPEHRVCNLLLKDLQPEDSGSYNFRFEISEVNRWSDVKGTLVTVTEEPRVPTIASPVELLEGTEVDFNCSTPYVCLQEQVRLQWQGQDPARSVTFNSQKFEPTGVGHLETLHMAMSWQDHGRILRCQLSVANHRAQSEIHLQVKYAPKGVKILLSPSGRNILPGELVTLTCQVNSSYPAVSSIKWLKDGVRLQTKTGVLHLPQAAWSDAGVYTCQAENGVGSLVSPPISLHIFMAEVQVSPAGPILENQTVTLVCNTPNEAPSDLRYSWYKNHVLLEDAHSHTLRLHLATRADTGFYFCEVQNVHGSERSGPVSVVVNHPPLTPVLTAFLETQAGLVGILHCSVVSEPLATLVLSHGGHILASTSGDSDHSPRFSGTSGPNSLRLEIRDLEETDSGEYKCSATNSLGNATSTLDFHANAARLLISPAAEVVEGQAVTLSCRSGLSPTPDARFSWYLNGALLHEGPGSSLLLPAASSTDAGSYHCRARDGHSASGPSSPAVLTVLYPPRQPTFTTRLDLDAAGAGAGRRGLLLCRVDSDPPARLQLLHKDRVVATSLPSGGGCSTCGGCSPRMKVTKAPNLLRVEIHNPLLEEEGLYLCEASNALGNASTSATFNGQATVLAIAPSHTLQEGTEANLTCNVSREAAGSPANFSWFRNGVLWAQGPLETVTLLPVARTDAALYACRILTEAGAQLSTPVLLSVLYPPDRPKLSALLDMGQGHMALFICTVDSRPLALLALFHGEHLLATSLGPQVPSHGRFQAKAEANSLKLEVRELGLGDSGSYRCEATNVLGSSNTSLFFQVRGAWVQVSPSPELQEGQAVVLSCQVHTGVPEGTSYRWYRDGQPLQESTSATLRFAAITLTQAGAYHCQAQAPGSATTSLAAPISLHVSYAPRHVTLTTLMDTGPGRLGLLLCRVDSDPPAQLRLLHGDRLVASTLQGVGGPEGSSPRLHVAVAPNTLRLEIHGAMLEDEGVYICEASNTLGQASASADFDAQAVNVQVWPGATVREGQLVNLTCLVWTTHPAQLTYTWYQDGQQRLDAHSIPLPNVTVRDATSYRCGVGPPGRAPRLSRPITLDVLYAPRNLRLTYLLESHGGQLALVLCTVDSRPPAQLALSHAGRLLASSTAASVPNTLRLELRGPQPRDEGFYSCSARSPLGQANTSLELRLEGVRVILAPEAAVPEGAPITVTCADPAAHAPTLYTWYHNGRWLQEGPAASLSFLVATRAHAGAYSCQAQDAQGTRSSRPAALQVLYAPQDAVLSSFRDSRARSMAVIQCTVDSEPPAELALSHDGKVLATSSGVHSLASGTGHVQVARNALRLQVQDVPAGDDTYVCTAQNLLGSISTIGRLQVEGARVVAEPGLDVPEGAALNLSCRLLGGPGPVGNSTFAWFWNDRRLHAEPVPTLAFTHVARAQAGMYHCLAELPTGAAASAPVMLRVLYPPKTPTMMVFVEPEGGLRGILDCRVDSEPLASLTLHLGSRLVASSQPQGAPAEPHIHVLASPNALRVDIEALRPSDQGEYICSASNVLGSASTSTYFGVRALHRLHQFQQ
T4 sequence (Q6UXN8 57-241 limits assumed): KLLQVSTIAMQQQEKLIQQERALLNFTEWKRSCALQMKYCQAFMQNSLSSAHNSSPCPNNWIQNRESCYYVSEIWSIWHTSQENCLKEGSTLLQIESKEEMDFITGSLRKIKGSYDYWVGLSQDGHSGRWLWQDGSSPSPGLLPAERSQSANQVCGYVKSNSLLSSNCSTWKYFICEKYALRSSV
T2 sequence (P16070 21-220 limits assumed): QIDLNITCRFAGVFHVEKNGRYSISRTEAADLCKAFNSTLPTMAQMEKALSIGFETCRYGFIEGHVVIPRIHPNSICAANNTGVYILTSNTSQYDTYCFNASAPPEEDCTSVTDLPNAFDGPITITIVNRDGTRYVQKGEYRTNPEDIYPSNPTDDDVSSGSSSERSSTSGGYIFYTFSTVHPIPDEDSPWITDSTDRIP

B1: sv6D (peptide)
peptide: NQHTPRGGGS
modifications: also: tetravalent: four arms joined through GGGS linker to branched tri-lysine core, core C-terminus amide or biotinyl-lysinyl-amide
notes: Tetravalent branched construct: four arms NQHTPR + GGGS linker on a tri-lysine core; Biotinylated in solid-phase assays; also called tetravalent peptide sv6D; C-terminal half of svL4
A word on the Kd: it is the constant that tells how readily two partners part at equilibrium. Regarding B1, the binding result is on record as “no binding (tested: 2 µM biotinylated peptide)” with Siglec-1; “no binding (tested: 2 µM biotinylated peptide)” with CD44; “no binding (tested: 2 µM biotinylated peptide)” in the test with IL-4R; “no binding (tested: 2 µM biotinylated peptide)” with CLEC9A; “no binding (tested: 2 µM biotinylated peptide)” in the test with DC-SIGN; “binds” in the test with recombinant rat CLEC10A. Also, the Kd turned out to be 150 nM in test [1] and 120 nM in [2].

B2: svL4 (peptide)
peptide: VQATQSNQHTPRGGGS
modifications: also: tetravalent: four arms joined through GGGS linker to branched tri-lysine core, core C-terminus amide or biotinyl-lysinyl-amide
notes: the tie follows from svL4 being the 12-mer whose C-terminal 6-mer is sv6D (NQHTPR); also called tetravalent peptide svL4; full-length svL4
With B2, the binding result with Siglec-1, in the test with CD44, in the test with IL-4R, with CLEC9A and with DC-SIGN was “no binding (tested: 2 µM biotinylated peptide)” in each case. Further, the values for the Kd in [1] and in test [2] were 240 nM and 210 nM, respectively.

B3: svC1 (peptide)
peptide: VQATQSGGGS
modifications: also: arms on branched tri-lysine core as for svL4, biotinylated at C-terminus of core in binding assays
notes: also called N-terminal half of svL4
Regarding B3, the binding result in test [3] and in [4] was “no binding (tested: 2 µM biotinylated peptide)” each time.
